Laboratory results reported in patent US6013453, “Binding proteins for recognition of DNA” (Medical Research Council).

Biological target: anti-BCR-ABL 1A-2A-3B/VP16 fusion (synthetic construct)
Assay: cell_activity; C3H10T1/2 cells
From the text: Having established DNA discrimination in vitro, the inventors wished to test whether the anti-BCR-ABL peptide was capable of site-specific DNA-binding in vivo. The peptide was fused to the VP16 activation domain from herpes simplex virus (Fields 1993 Methods 5, 116–124) and used in transient transfection assays (FIG. 9) to drive production of a CAT (chloramphenicol acetyl transferase) reporter gene from a binding site upstream of the TATA box (Gorman et al., Mol. Cell. Biol. 2, 1044–1051). In detail the experiment was performed thus: reporter plasmids pMCAT6BA, pMCAT6A, and pMCAT6B, were constructed by inserting 6 copies of the p190^BCR-ABL target site ([…], SEQ ID No. 121), the c-ABL second exon-intron junction sequence ([…], Seq ID No. 122), or the BCR first exon-intron junction sequence ([…] Seq ID No. 123) respectively, into pMCAT3 (Luscher et al., 1989 Genes Dev. 3, 1507–1517). The anti-BCR-ABL/VP16 expression vector was generated by inserting the in-frame fusion between the activation domain of herpes simplex virus VP16 (Fields 1993) and the Zn finger peptide in the pEF-BOS vector (Mizushima & Shigezaku 1990 Nucl. Acids Res. 18, 5322). C3H10T1/2 cells were transiently co-transfected with […] of reporter plasmid and […] of expression vector. […]

B1: p190 BCR-ABL site x6 reporter pMCAT6BA (dsDNA)
DNA 1: CGCAGAAGCC
DNA 2: GGCTTCTGCG
  activity: ~30 fold CAT activation
